The test system of this assay is hPSC-SMPCs. Kind of assay: Passaging and expansion of hPSC-SMPCs with added factors, gene expression. The class given is cell-based, human. As for the experimental part:
At day 50, myogenic genes PAX7, MYF5, MYOD, MYOG, and MYH3 were measured by QPCR and expressed as fold-change versus day 35 of directed differentiation. […] Subsequently, IGF-1 was added to N2 media in all experiments (FIGS. 5-8, 10A-10D, 10F, 11, and 12A-12E). […] Subsequently, FGF2 was added to SkBM-2 media in experiments (FIGS. 5-8, 10A-10D, 10F, 11, and 12A-12E).
HiPSC-SMPC subpopulations enrich for PAX7 but activate and increase expression of MYOD after passaging. […] (FIG. 9A).

This note sets out measurements from patent US12365875B2, “Methods for generating skeletal muscle progenitor cells” (The Regents of the University of California, priority 2017, dated 2025).

B1: WNT7A: Wnt family member added to SKBM2 expansion media (protein, UniProt O00755 32-349, looked up)
Protein Wnt-7a: LGASIICNKIPGLAPRQRAICQSRPDAIIVIGEGSQMGLDECQFQFRNGRWNCSALGERTVFGKELKVGSREAAFTYAIIAAGVAHAITAACTQGNLSDCGCDKEKQGQYHRDEGWKWGGCSADIRYGIGFAKVFVDAREIKQNARTLMNLHNNEAGRKILEENMKLECKCHGVSGSCTTKTCWTTLPQFRELGYVLKDKYNEAVHVEPVRASRNKRPTFLKIKKPLSYRKPMDTDLVYIEKSPNYCEEDPVTGSVGTQGRACNKTAPQASGCDLMCCGRGYNTHQYARVWQCNCKFHWCCYVKCNTCSERTEMYTCK
For B1, the “stemness factors HEYL and CJUN” value (passaged SMPCs in SKBM2) was “stabilize or increase stemness factors”. Further, where the note is “passaged SMPCs, compared to SKBM2 alone”, the “PAX7 expression during expansion” value is listed as “rescues PAX7 expression”.
